B1: VHH A26 (A26.8) (VHH)
VHH: QVKLEESGGGLVQAGGSLRLSCAASERTFSRYPVAWFRQAPGAEREFVAVISSTGTSTYYADSVKGRFTISRDNAKVTVYLQMNNLKREDTAVYFCAVNSQRTRLQDPNEYDYWGQGTQVTVSS
B2: VHH A20 (A20.1) (VHH)
VHH: QVQLVESGGGLAQAGGSLRLSCAASGRTFSMDPMAWFRQPPGKEREFVAAGSSTGRTTYYADSVKGRFTISRDNAKNTVYLQMNSLKPEDTAVYYCAAAPYGANWYRDEYAYWGQGTQVTVSS

Key:
Conditions in all cases: both partners purified
[1] = biological target: T1, TcdA-A2 fragment (C-terminal CROPs domain fragment of TcdA, aa 2,556–2,710 of TcdA10463) (Clostridioides difficile; paper: …); assay: SPR
T1 construct: source: recombinant (Greco et al., 2006)

[2] = biological target: T2, Clostridioides difficile toxin A (TcdA), full-length (Clostridioides difficile, strain of …, UniProt P16154); assay: ELISA
T2 construct: also called full-length TcdA

[3] = biological target: T1, TcdA-A2 fragment (C-terminal CROPs …); assay: SEC-MALS

Binder	T1/2 (SPR-calculated half-life, 0.693/kd) [1]	koff [1]	EC50 [2]	stoichiometry N [3]
B1	0.6 min	0.025 s⁻¹	14.6 nM	1 Ab per Ag (1:1)
B2	1.8 min	0.0075 s⁻¹	0.194 ± 0.013 nM	1 Ab per Ag (1:1)
